Drawing on CN111647564A (LI XIN; CHONG TUOTUO; LONG YUFEI, dated 2020), this text covers Ka for one molecule.

The experiment has as its target T1, LMP1重组蛋白抗原 (SEQ ID NO.2, 213-408aa of LMP1, expressed in E. coli) (Epstein-Barr virus, UniProt P29362 187-404).
T1 construct: Recombinant fragment purified with NTA buffers (a tag from the expression vector is likely but is not described); also called LMP1蛋白
T1 chain: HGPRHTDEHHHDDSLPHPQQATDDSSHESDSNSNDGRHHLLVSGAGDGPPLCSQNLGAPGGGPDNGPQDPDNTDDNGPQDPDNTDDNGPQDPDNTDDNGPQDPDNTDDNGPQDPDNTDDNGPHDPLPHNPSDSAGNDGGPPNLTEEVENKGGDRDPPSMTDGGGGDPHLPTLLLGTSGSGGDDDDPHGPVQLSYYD
The experiment can be described thus: non-competitive ELISA by Beatty's method, power curve model. On the technique in general: An ELISA detects its analyte on a solid surface through an enzyme-linked reagent.

B1: 抗LMP1单克隆抗体 7B63B10 (secreted by hybridoma cell line 7B63B10, CCTCC NO: C2019160) (antibody, IgG2b, V domains shown)
VH: EVKLVESGGGFVQPGGSRKLSCAASGFTFSSFGMHWVRQAPEKGLEWVAYISSGSSTIYYADTVKGRFTISRDNPKNTLFLQMTSLRSEDTAMYYCARDWVLDYWGQGTTLTVSS
VL: DIVITQTPLSLPVSLGDQASVSCRSSQSLVHSNGNTYLHWYLQKPGQSPKLLIYKVSNRFSGVPDRFSGSGSGTDFTLNISRVEAEDLGVYFCSQSTHVPFTFGGGTKLEIKR
notes: Mouse (Balb/c) hybridoma antibody, Ig type IgG2b; also called LMP1 7B63B10; 本发明单克隆抗体
For B1, the Ka worked out at 9e+09 M⁻¹.
